# According to patent US20190367589A1 (CYTOMX THERAPEUTICS, published 2019):
# B1: 346.8 (Fab, V domains shown)
# VH: EVQLLESGGGLVQPGGSLRLSCAASGFTFSSYAMSWVRQAPGKGLEWVSSIEQMGWQTYYADSVKGRFTISRDNSKNTLYLQMNSLRAEDTAVYYCAKHIGRTNPFDYWGQGTLVTVSS
# VL: DIQMTQSPSSLSASVGDRVTITCRASQSISSYLNWYQQKPGKAPKLLIYAASSLQSGVPSRFSGSGSGTDFTLTISSLQPEDFATYYCQQSVVAPLTFGQGTKVEIKR
# notes: also called Lc8/Hc8
# B2: 346.24 (Fab, V domains shown)
# VH: EVQLLESGGGLVQPGGSLRLSCAASGFTFSSYAMSWVRQAPGKGLEWVSSIEEMGWQTLYADSVKGRFTISRDNSKNTLYLQMNSLRAEDTAVYYCAKSAAAFDYWGQGTLVTVSS
# VL: DIQMTQSPSSLSASVGDRVTITCRASQSISSYLNWYQQKPGKAPKLLIYAASSLQSGVPSRFSGSGSGTDFTLTISSLQPEDFATYYCQQSVVAPLTFGQGTKVEIKR
# notes: also called Lc24/Hc24
# Legend:
# Assay in all cases: phage ELISA, ligand coated
# [1] = molecular target: T1, human Jagged 1-Fc (extracellular domain of human Jagged 1 fused to the Fc portion of human IgG1); R&D Systems … (human, UniProt P78504 34-1067)
# T1 construct: extracellular domain; Bought reagent; also called hJag1; h Jagged 1; not shown: Fc portion of human IgG1
# From the text: (§1) Jagged ligands were adsorbed to the wells of a 96-well ELISA plate, each ligand on a separate plate. Phage were applied to correlative wells on each plate and allowed to bind. Bound phage were visualized with an anti-M13-HRP conjugate and developed with the chromogenic substrate TMB. Also shown are the SEQ ID NOs for the each of these isolates.
# [2] = molecular target: T2, rat Jagged 1-Fc (R&D Systems Cat #599-JG-100) (rat, UniProt Q63722 34-1067, limits assumed)
# T2 construct: Bought reagent; also called rJag1; rJAG1; not shown: Fc part
# From the text: as §1
# [3] = molecular target: T3, human Jagged 2-Fc (R&D Systems Cat #1726-JG-050) (human, UniProt Q9Y219 27-1080, limits assumed)
# T3 construct: Bought reagent; also called hJag2; h Jagged 2; not shown: Fc part
# T3 sequence (Q9Y219 27-1080 limits assumed): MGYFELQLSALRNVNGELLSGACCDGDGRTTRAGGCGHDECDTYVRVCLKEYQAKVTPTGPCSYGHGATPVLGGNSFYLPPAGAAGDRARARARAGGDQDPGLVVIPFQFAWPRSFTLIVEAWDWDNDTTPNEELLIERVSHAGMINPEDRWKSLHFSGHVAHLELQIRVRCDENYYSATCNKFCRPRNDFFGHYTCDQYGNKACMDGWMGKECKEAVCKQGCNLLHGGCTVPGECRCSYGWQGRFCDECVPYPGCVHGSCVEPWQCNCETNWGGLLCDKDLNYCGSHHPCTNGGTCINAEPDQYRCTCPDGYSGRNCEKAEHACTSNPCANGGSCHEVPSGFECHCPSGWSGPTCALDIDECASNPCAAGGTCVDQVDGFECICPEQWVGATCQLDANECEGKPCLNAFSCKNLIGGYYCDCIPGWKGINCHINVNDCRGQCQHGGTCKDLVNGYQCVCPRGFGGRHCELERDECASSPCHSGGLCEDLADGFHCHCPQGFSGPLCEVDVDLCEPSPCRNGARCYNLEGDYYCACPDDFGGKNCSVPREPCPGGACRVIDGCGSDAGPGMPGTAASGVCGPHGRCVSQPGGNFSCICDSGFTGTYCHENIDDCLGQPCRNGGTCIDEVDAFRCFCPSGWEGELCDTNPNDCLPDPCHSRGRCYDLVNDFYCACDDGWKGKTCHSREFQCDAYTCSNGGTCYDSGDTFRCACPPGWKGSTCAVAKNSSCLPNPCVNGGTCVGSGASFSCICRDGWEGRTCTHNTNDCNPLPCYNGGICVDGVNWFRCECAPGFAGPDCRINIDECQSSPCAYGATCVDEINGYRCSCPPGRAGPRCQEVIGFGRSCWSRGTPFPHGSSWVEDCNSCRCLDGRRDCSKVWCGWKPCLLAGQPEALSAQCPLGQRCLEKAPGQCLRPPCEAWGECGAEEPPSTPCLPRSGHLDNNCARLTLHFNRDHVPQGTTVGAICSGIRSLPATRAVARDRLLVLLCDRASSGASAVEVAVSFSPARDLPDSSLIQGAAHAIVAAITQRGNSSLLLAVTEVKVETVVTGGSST
# From the text: as §1
Binder,binding result [1],binding result [2],binding result [3]
B1,binds,binds,
B2,binds,,binds
